These results are taken from article PMC3619129.

This assay concerns the target F-actin (human (endogenous in T cells)) (UniProt P60709).

For “wild type (WT) ezrin-EGFP (from UniProt P15311 1-586) (natural protein)”, the mobile fraction (MF) of the EGFP-tagged ezrin by FRAP in human T cells, no pretreatment, with SDF-1 came out at 0.64; the mobile fraction (MF) of the EGFP-tagged ezrin by FRAP in human T cells, no pretreatment, without SDF-1 came to 0.74; the mobile fraction (MF) of the EGFP-tagged ezrin by FRAP in human T cells, pretreated with latrunculin A (1 μM, 30 min), with SDF-1 amounted to 0.79; the mobile fraction (MF) of the EGFP-tagged ezrin by FRAP in human T cells, pretreated with latrunculin A (1 μM, 30 min), without SDF-1 was 0.81.
Consider “T567D ezrin-EGFP (from UniProt P15311 1-586) (natural protein)”, for which the mobile fraction (MF) of the EGFP-tagged ezrin by FRAP in human T cells, no pretreatment, with SDF-1 is 0.18; the mobile fraction (MF) of the EGFP-tagged ezrin by FRAP in human T cells, no pretreatment, without SDF-1 is 0.25; the mobile fraction (MF) of the EGFP-tagged ezrin by FRAP in human T cells, pretreated with latrunculin A (1 μM, 30 min), with SDF-1 is 0.81; the mobile fraction (MF) of the EGFP-tagged ezrin by FRAP in human T cells, pretreated with latrunculin A (1 μM, 30 min), without SDF-1 was 0.72.
